Earlier results on 1 substance are cited in PMC3749136.

What is called Kd is the equilibrium constant for the complex coming apart.

For this series, the target named is EGF-R pY1092 peptide pY1092 peptide (Homo sapiens) (UniProt P00533). The following applies: cited from earlier work.

Sequence of SOCS4 SH2 (Q8WXH5 283-384): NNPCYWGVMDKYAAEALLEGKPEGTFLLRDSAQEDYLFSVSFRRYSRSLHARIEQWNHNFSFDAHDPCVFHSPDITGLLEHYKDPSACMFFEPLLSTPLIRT

Take SOCS4 SH2 (from UniProt Q8WXH5): the Kd is 0.5 µM.
